Values joined by “and” are separate entries in the source; they are usually repeats but may differ in a detail not shown here. Equal entries are not always repeated. Values belong to the binder of their own block, whether it stands above or below them.
How the values were obtained:
[1] = target: T1, recombinant human ROR1 extracellular domain (human, UniProt Q01973 30-406); test: ELISA, immobilised ROR1 ECD, antibody titrated
T1 construct: Bought (Acro Biosystems cat. R01-H522Y); whole entry named; also called ROR1-ECD; immobilized ROR1
Protocol: (§1) A 96-well Costar-3366 plate was coated with 50 μL/well of 2 μg/mL […] (Acro Biosystems cat. #R01-H522Y) in PBS overnight at 4° C. The plate was rinsed once with PBS containing 0.05% Tween 20 (PBS-T) and blocked with 100 μL/well of 5% non-fat milk in PBS (5% M-P) for 1 h at 25° C. Antibody samples were serially diluted 2-fold using 5% M-P and were incubated for 1 h at 25° C. (50 μL/well). The plate was washed three times with PBS-T and 50 μL/well anti-human kappa, HRP conjugate (Southern Biotech cat. #2060-05) diluted 10,000-fold in 5% M-P was added for 1 h at 25° C. The plate was washed three times with PBS-T, developed with 50 μL/well 1-Step Ultra TMB-ELISA (Thermo Scientific cat. #34028). The reaction was terminated by the addition of 2 N H₂SO₄ and the A450 was determined using a Spectramax plate reader.
(§2) Next, the binding of bispecific binding molecules to ROR was characterized by ELISA using recombinantly-expressed extracellular domain of RORL. ROR was immobilized on a microtiter plate, the bispecific binding molecules were titrated, and binding was quantitated with an anti-human kappa-HRP reagent. Consistent with the cell binding data, all constructs bound ROR1 in a concentration-dependent manner (FIG. 6). Moreover, monovalent ROR1 constructs 13-15 bound less tightly than all but two of the bivalent constructs.

[2] = target: T2, soluble biotinylated human ROR1 extracellular domain (human, UniProt Q01973 30-406, biotinylated with EZ-Link Sulfo-NHS-LC-Biotin at a 1:5 molar ratio); test: ELISA, captured antibody, biotinylated ROR1 titrated
T2 construct: Acro Biosystems cat; whole entry named; also called b-ROR1; soluble b-ROR1
Protocol: (§3) To measure the binding of bispecific constructs to soluble ROR1, a 96-well Costar-3366 plate was coated with 50 μL/well of 2 μg/mL goat anti-human kappa (Southern Biotech cat. #2060-01) in PBS overnight at 4° C. The plate was rinsed once with PBS-T, blocked with 100 μL/well 5% M-P for 1 h at 25° C., rinsed once with PBS-T, and 2 μg/mL of the bispecific binding molecule was added and incubated for 1 h at 25° C. The plate was washed three times with PBS-T. Biotinylated ROR1 was diluted serially, 3-fold in 5% M-P and was incubated for 1 h at 25° C. (50 μL/well). The plate was washed three times with PBS-T. To detect the binding of b-ROR1, 50 μL/well Neutravidin-HRP (Pierce cat. #31030) diluted 1:5000 in 1% BSA-PBS was added for 1 h at 25° C. […] The reaction was terminated by the addition of 2 N H₂SO₄ and the A450 was determined using a Spectramax plate reader.
(§4) The stronger binding observed with bivalent constructs versus monovalent constructs in cell assays and ELISAs in which the antigen is immobilized is consistent with an avidity effect. To determine if this was the case, binding to soluble monomeric ROR1 was assessed by immobilizing the bispecific binding molecules on a microtiter plate coated with goat anti-human kappa antibody and titrating biotinylated RORL. […]

human ROR1 on cells [3] = target: T3, human ROR1 on cells (human, UniProt Q01973 30-937); test: cell-based or functional assay
[4] = target: T2, soluble biotinylated human ROR1 …; test: ELISA, captured construct, biotinylated ROR1 titrated; first of the two values given
Protocol: as §3, §4

[5] = target: T2, soluble biotinylated human ROR1 …; test: ELISA, captured construct, biotinylated ROR1 titrated; second of the two values given
Protocol: as §3, §4

[6] = target: T1, recombinant human ROR1 extracellular …; test: ELISA, immobilised ROR1 ECD, construct titrated
Protocol: as §1, §2

human ROR1 on cells [7] = target: T3, human ROR1 on cells; test: cell-based or functional assay; remark: listed apart in the source
[8] = target: T4, human CD3 on Jurkat cells (human, UniProt P09693 23-182; P04234 22-171; P07766 23-207); test: flow cytometry on Jurkat cells
T4 construct: GenBank NP_000064.1, NP_000723.1, NP_000724.1
Method in brief: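 Jurkat cells (2.5E5 per condition) incubated with bispecific molecule in PBS/2% FBS on ice for 20 min, then detected with PE-labelled anti-human Fc (1:500, 20 min on ice). Cells fixed in 2% paraformaldehyde and bound antibody measured by flow cytometry.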

T2 sequence (Q01973 30-406 limits assumed): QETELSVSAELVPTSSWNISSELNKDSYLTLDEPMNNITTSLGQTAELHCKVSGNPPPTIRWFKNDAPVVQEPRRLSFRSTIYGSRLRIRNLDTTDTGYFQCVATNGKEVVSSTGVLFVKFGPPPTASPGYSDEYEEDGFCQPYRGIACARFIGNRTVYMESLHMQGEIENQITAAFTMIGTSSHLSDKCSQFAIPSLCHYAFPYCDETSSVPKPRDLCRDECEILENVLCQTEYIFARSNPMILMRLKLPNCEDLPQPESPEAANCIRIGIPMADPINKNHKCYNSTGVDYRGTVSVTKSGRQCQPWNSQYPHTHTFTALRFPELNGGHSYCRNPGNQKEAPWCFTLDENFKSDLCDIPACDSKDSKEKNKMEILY
T3 sequence (Q01973 30-937 limits assumed): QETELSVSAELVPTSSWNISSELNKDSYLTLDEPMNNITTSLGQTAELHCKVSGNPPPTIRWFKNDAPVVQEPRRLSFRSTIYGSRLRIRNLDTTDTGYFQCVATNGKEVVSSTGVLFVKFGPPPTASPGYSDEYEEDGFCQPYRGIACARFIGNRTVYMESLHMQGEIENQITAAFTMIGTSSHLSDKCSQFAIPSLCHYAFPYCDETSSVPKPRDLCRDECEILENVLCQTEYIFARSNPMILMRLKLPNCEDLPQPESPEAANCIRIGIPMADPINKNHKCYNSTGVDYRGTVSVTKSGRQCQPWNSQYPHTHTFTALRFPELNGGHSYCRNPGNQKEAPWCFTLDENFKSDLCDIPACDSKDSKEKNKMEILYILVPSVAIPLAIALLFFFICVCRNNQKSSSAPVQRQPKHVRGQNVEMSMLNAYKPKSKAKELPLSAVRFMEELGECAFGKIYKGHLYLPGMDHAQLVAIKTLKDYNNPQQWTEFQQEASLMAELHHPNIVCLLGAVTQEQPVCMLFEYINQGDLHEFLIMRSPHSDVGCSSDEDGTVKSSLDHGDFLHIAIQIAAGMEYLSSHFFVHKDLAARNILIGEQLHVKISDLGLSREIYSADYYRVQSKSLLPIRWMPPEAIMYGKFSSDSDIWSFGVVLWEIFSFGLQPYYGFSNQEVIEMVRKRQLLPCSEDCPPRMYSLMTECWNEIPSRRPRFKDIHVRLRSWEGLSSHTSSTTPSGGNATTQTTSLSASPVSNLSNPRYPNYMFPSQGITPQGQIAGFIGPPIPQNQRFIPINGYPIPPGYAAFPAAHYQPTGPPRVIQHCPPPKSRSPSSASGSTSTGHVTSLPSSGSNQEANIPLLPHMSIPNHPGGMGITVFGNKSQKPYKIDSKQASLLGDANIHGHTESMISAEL
T1 sequence (Q01973 30-406 limits assumed): as the sequence (Q01973 30-406 limits assumed) above
T4 sequence (P09693 23-182 limits assumed, chain 1 of 3): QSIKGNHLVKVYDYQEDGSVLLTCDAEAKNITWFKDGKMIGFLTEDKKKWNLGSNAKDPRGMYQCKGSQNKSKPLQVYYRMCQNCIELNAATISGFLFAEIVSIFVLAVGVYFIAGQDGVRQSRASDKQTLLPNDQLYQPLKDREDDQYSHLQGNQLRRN
T4 sequence (P04234 22-171 limits assumed, chain 2 of 3): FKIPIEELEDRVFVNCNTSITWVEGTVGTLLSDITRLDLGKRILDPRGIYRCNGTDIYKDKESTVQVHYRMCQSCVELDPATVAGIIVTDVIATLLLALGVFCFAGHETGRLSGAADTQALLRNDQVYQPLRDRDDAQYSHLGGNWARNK
T4 sequence (P07766 23-207 limits assumed, chain 3 of 3): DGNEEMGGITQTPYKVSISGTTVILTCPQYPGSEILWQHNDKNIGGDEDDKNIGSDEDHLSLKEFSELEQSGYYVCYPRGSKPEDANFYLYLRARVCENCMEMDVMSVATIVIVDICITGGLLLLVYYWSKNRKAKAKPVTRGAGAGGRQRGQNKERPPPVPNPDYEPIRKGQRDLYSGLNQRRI

Kd [1]: 0.037 nM
Kd [2]: 0.158 nM and 0.145 nM
B1: parental anti-ROR1 IgG (Ab1) (antibody, V domains shown)
VH: QVQLQESGPGLVKPSQTLSLTCTVSGYAFTAYNIHWVRQAPGQGLEWMGSFDPYDGGSSYNQKFKDRLTISKDTSKNQVVLTMTNMDPVDTATYYCARGWYYFDYWGHGTLVTVSS
VL: DIVMTQTPLSLPVTPGEPASISCRASKSISKYLAWYQQKPGQAPRLLIYSGSTLQSGIPPRFSGSGYGTDFTLTINNIESEDAAYYFCQQHDESPYTFGEGTKVEIKR
notes: also called Control; parental IgG

EC50, LDH release, ROR1-transfected MEC, one PBMC donor (human ROR1 on cells [3]): < 0.1 ng/mL
Kd [4]: 0.268 nM
Kd [5]: 0.229 nM
Kd [6]: 0.158 nM
EC50, LDH release, A549 (human ROR1 on cells [7]): 9.95 ng/mL and 49.8 pM
EC50, LDH release, A4573 (human ROR1 on cells [7]): 9.71 ng/mL and 48.6 pM
EC50, LDH release, JeKo-1 (human ROR1 on cells [7]): 1.71 ng/mL and 8.5 pM
EC50, LDH release, MDA-MB-468 (human ROR1 on cells [7]): 5.55 ng/mL and 27.8 pM
EC50, LDH release, Mino (human ROR1 on cells [7]): 0.75 ng/mL and 3.8 pM
EC50, LDH release, NCI-H1975 (human ROR1 on cells [7]): 2.3 ng/mL and 11.5 pM
EC50, LDH release, Saos-2 (human ROR1 on cells [7]): 14.6 ng/mL and 73.2 pM
Max. LDH Release, Mino (human ROR1 on cells [7]): 75%
binding result [8]: binds
B2: Bispecific construct 9 (bispecific antibody, human IgG1, kappa)
heavy: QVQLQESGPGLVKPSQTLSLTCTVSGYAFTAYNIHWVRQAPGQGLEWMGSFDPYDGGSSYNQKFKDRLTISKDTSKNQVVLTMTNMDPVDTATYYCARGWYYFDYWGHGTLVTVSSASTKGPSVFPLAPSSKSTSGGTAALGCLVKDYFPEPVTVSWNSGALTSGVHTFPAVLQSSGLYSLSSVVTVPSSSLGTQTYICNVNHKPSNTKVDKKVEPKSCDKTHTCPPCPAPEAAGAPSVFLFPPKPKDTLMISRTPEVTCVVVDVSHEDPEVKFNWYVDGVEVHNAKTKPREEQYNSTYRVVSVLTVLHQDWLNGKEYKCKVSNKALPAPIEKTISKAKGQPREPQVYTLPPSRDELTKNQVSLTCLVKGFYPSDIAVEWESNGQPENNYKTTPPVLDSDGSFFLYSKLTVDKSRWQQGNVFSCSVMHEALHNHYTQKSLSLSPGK
light: DIVMTQTPLSLPVTPGEPASISCRASKSISKYLAWYQQKPGQAPRLLIYSGSTLQSGIPPRFSGSGYGTDFTLTINNIESEDAAYYFCQQHDESPYTFGEGTKVEIKRTVAAPSVFIFPPSDEQLKSGTASVVCLLNNFYPREAKVQWKVDNALQSGNSQESVTEQDSKDSTYSLSSTLTLSKADYEKHKVYACEVTHQGLSSPVTKSFNRGECGGGGSGGGGSEVQLVESGGGLVQPGGSLRLSCAASGFTFNTYAMNWVRQAPGKGLEWVARIRSKYNNYATYYADSVKGRFTISRDDSKNTLYLQMNSLRAEDTAVYYCVRHGNFGNSYVSYFAYWGQGTTVTVSSGGGGSGGGGSGGGGSGGGGSEIVVTQSPATLSVSPGERATLSCRSSTGAVTAANYANWVQEKPGQAFRGLIGGANKRAPGVPARFSGSLSGDEATLTISSLQSEDFAVYYCALFYSNLWVFGQGTKLEIK
notes: anti-CD3 scFv Ab10 (SP34-based); ROR1 arm Ab1; valency 2/2

— patent publication US20220227866A1 (VELOSBIO, published 2022)
